B1: Charged multivesicular body protein 1b (Homo sapiens), Q7LBR1 (parent)
chain: MSNMEKHLFNLKFAAKELSRSAKKCDKEEKAEKAKIKKAIQKGNMEVARIHAENAIRQKNQAVNFLRMSARVDAVAARVQTAVTMGKVTKSMAGVVKSMDATLKTMNLEKISALMDKFEHQFETLDVQTQQMEDTMSSTTTLTTPQNQVDMLLQEMADEAGLDLNMELPQGQTGSVGTSVASAEQDELSQRLARLRDQV
partner: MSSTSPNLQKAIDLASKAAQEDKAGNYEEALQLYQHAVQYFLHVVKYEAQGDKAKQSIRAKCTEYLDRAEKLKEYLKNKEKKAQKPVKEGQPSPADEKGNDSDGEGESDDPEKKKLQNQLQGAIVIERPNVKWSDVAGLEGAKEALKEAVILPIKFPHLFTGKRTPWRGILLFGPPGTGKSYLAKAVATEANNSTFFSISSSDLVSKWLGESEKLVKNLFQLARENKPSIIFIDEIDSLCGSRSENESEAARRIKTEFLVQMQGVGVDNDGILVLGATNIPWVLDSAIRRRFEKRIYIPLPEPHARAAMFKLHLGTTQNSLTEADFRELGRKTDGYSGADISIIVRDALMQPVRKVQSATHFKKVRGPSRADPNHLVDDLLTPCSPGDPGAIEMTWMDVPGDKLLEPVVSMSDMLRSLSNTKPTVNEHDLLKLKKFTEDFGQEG
B2: Vacuolar protein sorting-associated protein 4A (Homo sapiens), Q9UN37 (parent)
chain: MTTSTLQKAIDLVTKATEEDKAKNYEEALRLYQHAVEYFLHAIKYEAHSDKAKESIRAKCVQYLDRAEKLKDYLRSKEKHGKKPVKENQSEGKGSDSDSEGDNPEKKKLQEQLMGAVVMEKPNIRWNDVAGLEGAKEALKEAVILPIKFPHLFTGKRTPWRGILLFGPPGTGKSYLAKAVATEANNSTFFSVSSSDLMSKWLGESEKLVKNLFELARQHKPSIIFIDEVDSLCGSRNENESEAARRIKTEFLVQMQGVGNNNDGTLVLGATNIPWVLDSAIRRRFEKRIYIPLPEEAARAQMFRLHLGSTPHNLTDANIHELARKTEGYSGADISIIVRDSLMQPVRKVQSATHFKKVCGPSRTNPSMMIDDLLTPCSPGDPGAMEMTWMDVPGDKLLEPVVCMSDMLRSLATTRPTVNADDLLKVKKFSEDFGQES
partner: B1 chain

Variants of: B1
Settings: with vps4b_human VPS4B

| effect of a mutation on the interaction | Variant |
| --- | --- |
| decreasing interaction strength | L188A |
| decreasing interaction strength | L192A |

Variants of: B2
Settings: with chm1b_human CHMP1B

| effect of a mutation on the interaction | Variant |
| --- | --- |
| decreasing interaction strength | L64A |
| disrupting interaction strength | L64D |
